Read-outs that look alike come from different tables or passages of the source.

The source of these data is patent US20260132200A1 (Regeneron, published 2026).

In experiment [1] the target is T1, Soluble heterodimeric CD3 protein (hCD3-epsilon/hCD3-delta) with either a human Fc tag (hFcΔAdp/hFc) or a … (human, UniProt P07766 23-126; P04234 22-100).
T1 construct: Soluble construct; not shown: Fc tag: human (hFcΔAdp/hFc)
T1 chain 1: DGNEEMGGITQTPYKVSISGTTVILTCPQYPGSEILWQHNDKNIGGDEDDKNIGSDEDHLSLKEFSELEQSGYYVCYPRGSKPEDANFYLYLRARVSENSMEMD
T1 chain 2: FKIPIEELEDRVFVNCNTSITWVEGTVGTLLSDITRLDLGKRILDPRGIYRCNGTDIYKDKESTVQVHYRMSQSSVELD
Description: SPR Biacore 25C antigen-capture. As for the experimental part:
Measurements were conducted on a T200 Biacore instrument.
In the antigen-capture format, heterodimeric CD3 protein was captured using a rabbit anti-mouse Fc or mouse anti-human Fc and the respective antibodies were injected over the captured antigen.
Kinetic association (kₐ) and dissociation (kd) rate constants were determined by processing and fitting the data to a 1:1 binding model using Scrubber 2.0 curve fitting software. Binding dissociation equilibrium constants (KD) and dissociative half-lives (t_{1/2}) were calculated from the kinetic rate constants as: KD (M)=kd/kₐ; and t_{1/2} (min) (ln 2/(60*kd). NT=not tested; NB=no binding observed.

For experiment [2], the target named is T2, human CD20 expressed on Raji cells (CD3-, CD20+ human B-cell line) (human, UniProt P11836 1-297).
T2 sequence: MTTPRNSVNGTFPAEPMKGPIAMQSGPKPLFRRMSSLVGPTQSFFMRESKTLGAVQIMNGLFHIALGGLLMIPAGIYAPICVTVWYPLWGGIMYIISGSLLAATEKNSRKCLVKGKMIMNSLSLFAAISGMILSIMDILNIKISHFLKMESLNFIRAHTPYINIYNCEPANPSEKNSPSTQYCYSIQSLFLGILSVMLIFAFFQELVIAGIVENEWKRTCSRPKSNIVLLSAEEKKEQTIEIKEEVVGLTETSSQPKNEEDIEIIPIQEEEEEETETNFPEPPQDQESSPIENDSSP
Description: cell-based or functional assay.

Experiment [3] addresses T3, human CD3 expressed on cells (Jurkat, a CD3+ human T-cell line; human T cells) (human, UniProt P07766 23-126; P04234 22-100).
T3 chain 1: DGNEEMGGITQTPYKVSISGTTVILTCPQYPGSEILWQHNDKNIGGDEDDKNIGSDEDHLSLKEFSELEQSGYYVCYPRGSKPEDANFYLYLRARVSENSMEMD
T3 chain 2: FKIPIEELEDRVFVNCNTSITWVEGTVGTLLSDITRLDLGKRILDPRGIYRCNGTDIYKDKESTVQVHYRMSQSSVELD
Kind of experiment: cell-based or functional assay.

Experiment [4] has as its target T2, human CD20 expressed on Raji cells …. Description: cell-based or functional assay. This is another data set of the same source.
The target of experiment [5] is T3, human CD3 expressed on cells (Jurkat, a …). Description: FACS on Jurkat cells. On the procedure:
(§1) CD20×CD3 bispecific antibodies and Control constructs, as set forth in Example 1, were tested via FACS for their ability to bind to Jurkat (CD3+, CD20− human T-cell line), Raji (CD3−, CD20+ Human B-cell line), or cynomolgus PBMCs (“mkT cells”).
(§2) FACS data was acquired using the following protocol: Cells at 2×10⁵ per well were incubated with serially diluted antibodies for 30 min on ice. Post incubation, cells were washed and appropriate secondary (Jurkat, RAJI cells) or cocktail of secondary antibodies (for cyno PBMC) was added and incubated for an additional 30 minutes. After incubation, cells were washed, re-suspended in cold PBS containing 1% BSA and analyzed by flow cytometry on a BD FACS Canto II. Jurkat and Raji cells were gated by side and forward scatters, while cynomolgus T cells were also gated in a CD2+CD4+ population. The EC₅₀s for cell binding titration were determined using Prism software with values calculated using a 4-parameter non-linear regression analysis.

For experiment [6], the target named is T2, human CD20 expressed on Raji cells …. Kind of experiment: FACS on Raji cells. On the procedure:
as §1, §2

The target in experiment [7] is T3, human CD3 expressed on cells (Jurkat, a …). Kind of experiment: cell-based or functional assay.
The target is the same in experiment [8]. Description: FACS on Jurkat cells. On the procedure: Binding was assessed using Jurkat cells (a CD3+ human T-cell line), while proliferation of Peripheral Blood Mononuclear Cells (PBMC) was assessed using ATP catalyzed quantification (CellTiter Glo®).
FACS data was acquired using the following protocol: Cells at 2×10⁵ per well were incubated with serially diluted antibodies for 30 min on ice. Post incubation, cells were washed and secondary antibody was added and incubated for an additional 30 minutes. After incubation, cells were washed, re-suspended in cold PBS containing 1% BSA and analyzed by flow cytometry with viable Jurkat cells gated by side and forward scatters. The EC₅₀s for cell binding titration were determined using Prism software with values calculated using a 4-parameter non-linear regression analysis.

B1: H2M3547N (antibody, V domains shown)
VH: EAQLVESGGGLVQPGRSLRLSCTTSGFTFDDYTMHWVRQAPGKGLEWISDISWNGGTKGYADSVKGRFTISRDNAKNSLYLQMDSLRGEDTALYYCVKDKSGYGHFYFGLDVWGQGTTVTVSS
VL: DIQMTQSPSSLTASVGDRVTFTCRASQSISRHLSWYQQKPGKAPKLLIYAASSLESGVPSRFSGSGSGTDFTLTISSLHPEDFATYYCQQSYSNPPITFGQGTRLEIK
notes: mouse IgG2 Fc, human variable regions
By koff is commonly meant the rate constant with which the complex falls apart. A word on the kon: it is the second-order rate constant of association. In experiment [1], B1 came in with a koff of 1e-05 s⁻¹ and a kon of 470000 M⁻¹ s⁻¹.

B2: BS3/20-001 (bispecific antibody, V domains shown)
VH 1: EVQLVESGGGLVQPGRSLRLSCVASGFTFNDYAMHWVRQAPGKGLEWVSVISWNSDSIGYADSVKGRFTISRDNAKNSLYLQMHSLRAEDTALYYCAKDNHYGSGSYYYYQYGMDVWGQGTTVTVSS
VH 2: EVQLVESGGGLVQPGRSLRLSCAASGFTFDDYTMHWVRQAPGKGLEWVSGISWNSGSIGYADSVKGRFTISRDNAKKSLYLQMNSLRAEDTALYYCAKDNSGYGHYYYGMDVWGQGTTVTVAS
VL: AEIVMTQSPATLSVSPGERATLSCRASQSVSSNLAWYQQKPGQAPRLLIYGASTRATGIPARFSGSGSGTEFTLTISSLQSEDFAVYYCQHYINWPLTFGGGTKVEIK
notes: also called CD3×CD20 bispecific antibody
Broadly, the EC50 is the midpoint of the concentration-response curve. With B2, in experiment [2], the “CD25 upregulation on CD8+ T-cells, PBMC + Raji, EC50” value is 1.35 pM and the “CD25 upregulation on CD8+ T-cells, PBMC, EC50” value came out at 112 pM. Also, the “U937 Cytotoxicity Human T-cells [M] (EC50)” value in experiment [3] amounted to 8.86e-11 M. In addition, in experiment [4], the “Raji Cytotoxicity Human T-cells [M] (EC50)” value worked out at 5.63e-11 M and the “Raji Cytotoxicity Monkey T-cells [M] (EC50)” value worked out at 1.27e-12 M. The EC50 in experiment [5] came out at 38500 pM. The molecule also showed an EC50 in experiment [6] of 59900 pM.

B3: BS3/20-004 (bispecific antibody, V domains shown)
VH 1: EVQLVESGGGLVQPGRSLRLSCVASGFTFNDYAMHWVRQAPGKGLEWVSVISWNSDSIGYADSVKGRFTISRDNAKNSLYLQMHSLRAEDTALYYCAKDNHYGSGSYYYYQYGMDVWGQGTTVTVSS
VH 2: QVQLVESGGGVVQPGRSLRLSCAASGFTFRSYAMHWVRQAPGKGLEWVAMVYYDGNNQYYADSVRGRFTISRDNSKNTLYLQMNSLRADDTAVYFCARGPGYNWLDPWGQGTLVTVSS
VL: EIVMTQSPATLSVSPGERATLSCRASQSVSRNLAWYQQKPGQAPRLLIYGASTRATGIPARFSGSGSGTDFTLTISSLQSEDFAVYYCQQYNNWPLTFGGGTKVVIK
Regarding B3, the “U937 Cytotoxicity Human T-cells [M] (EC50)” value in experiment [3] came out at 6.07e-11 M. Further, the “Raji Cytotoxicity Human T-cells [M] (EC50)” value in experiment [4] was determined as 1.29e-11 M. Also, the EC50 in experiment [5] is 48900 pM; in experiment [6] it was 10200 pM.

B4: BS3/20-002 (bispecific antibody, V domains shown)
VH 1: EVQLVESGGGLVQPGRSLRLSCVASGFTFNDYAMHWVRQAPGKGLEWVSVISWNSDSIGYADSVKGRFTISRDNAKNSLYLQMHSLRAEDTALYYCAKDNHYGSGSYYYYQYGMDVWGQGTTVTVSS
VH 2: EVQLVESGGGLVQPGGSLRLSCAATGFTFDDFTMHWVRQAPGKGLEWVSGISWNSGSIGYVDSVKGRFTISRDNAKNSLYLQMNSLRAEDTALYYCAKDNSGYGYYYYGMDVWGQGTTVTVSS
VL: EIVMTQSPATLSVSPGERATLSCRASHSVSRNSAWYQQKPGQAPRLLIYGASTRATGIPARFSGSGSGTEFTLTISSLQSEDFAIYYCQQYNNWPLTFGGGTKVEIK
Turning to B4, the “U937 Cytotoxicity Human T-cells [M] (EC50)” value in experiment [3] turned out to be 8.24e-10 M. Besides, the “Raji Cytotoxicity Human T-cells [M] (EC50)” value in experiment [4] was 7.71e-11 M. Also, the results for the EC50 in experiment [5] and in experiment [6] were 56200 pM and 11500 pM, respectively.

B5: BS3/20-003 (bispecific antibody, V domains shown)
VH 1: EVQLVESGGGLVQPGRSLRLSCVASGFTFNDYAMHWVRQAPGKGLEWVSVISWNSDSIGYADSVKGRFTISRDNAKNSLYLQMHSLRAEDTALYYCAKDNHYGSGSYYYYQYGMDVWGQGTTVTVSS
VH 2: EVQLVESGGGLVQPGRSLRLSCAASGFTFDDYTMHWVRQAPGKGLEWVSGISWNSGSIGYADSVKGRFTISRDNAKKSLYLQMNSLRAEDTALYYCAKDNSGYGHYYYGMDVWGQGTTVTVAS
VL: EIVMTQSPATLSVSPGERATLSCRASQSVSSNLAWYQQKPGQAPRLLIYGASTRATGIPARFSGSGSGTEFTLTISSLQSEDFAVYYCQHYINWPLTFGGGTKVEIK
With B5, in experiment [2], the “CD25 upregulation on CD8+ T-cells, PBMC + Raji, EC50” value came to 0.338 pM and the “CD25 upregulation on CD8+ T-cells, PBMC, EC50” value stood at 365 pM. Moreover, the “U937 Cytotoxicity Human T-cells [M] (EC50)” value in experiment [3] came to 8.1e-11 M. In experiment [4], the “Raji Cytotoxicity Human T-cells [M] (EC50)” value was determined as 7.38e-11 M and the “Raji Cytotoxicity Monkey T-cells [M] (EC50)” value stood at 4.36e-14 M. This molecule also registered an EC50 in experiment [5] of 56700 pM. The same molecule returned an EC50 in experiment [6] of 92400 pM.

B6: BS3/20-005 (bispecific antibody, V domains shown)
VH 1: EVQLVESGGGLVQPGRSLRLSCVASGFTFNDYAMHWVRQAPGKGLEWVSVISWNSDSIGYADSVKGRFTISRDNAKNSLYLQMHSLRAEDTALYYCAKDNHYGSGSYYYYQYGMDVWGQGTTVTVSS
VH 2: QVQLVESGGGVVQPGRSLRLACVASGFTFRSYGMHWVRQAPGKGLQWVAMIYYDGKNKYYADSVRGRFTISRDNSKNTLYLQMNNLRVEDTAMYFCARGPGYNWLDPWGQGTLVTVSS
VL: EIVMTQSPATLSVSPGERATLSCRASQRISSNLAWYQQKPGQAPRLLIYGASTRATGSPARFSGSGSGTDFTLTISSLQSEDVAVYYCQQHHNWPLTFGGGTKVEIK
B6: the “Raji Cytotoxicity Human T-cells [M] (EC50)” value in experiment [4] was found to be 1.95e-11 M. In experiment [6], this molecule came in with an EC50 of 81700 pM.

B7: H2M2704N (antibody, mouse IgG2, V domains shown)
VH: QVQLVESGGGVVQPGRSLRLSCGASGFTFRSYGMHWVRQTPGRGLEWVAMIYYDGNNKYYADSVRGRFTVSRDNSKNTLYLQMSSLRAEDTALYFCARGPGYNWLDPWGQGTLVTVSS
VL: EIVMTQSPATLSVSPGERATLSCRASQSISRNLAWYQQKPGQAPRLLIYGASTRATGIPARFSGSGSGTEFTLTISSLQSEDFAVYYCQQYNNRPLTFGGGTEVEIK
notes: mouse IgG2 Fc (H2M), human variable regions
Take B7: the “U937 Cytotoxicity Human T-cells [M] (EC50)” value in experiment [7] worked out at 2.49e-12 M. The molecule further displayed an EC50 in experiment [8] of 845 pM.

B8: H2M2709N (antibody, mouse IgG2, V domains shown)
VH: QVQLVESGGGVVQPGRSLRLSCAASGFTFRSFGMHWVRQAPGRGLEWVAMIYFDGKNKYYADSVRGRFTISRDNSKNTLYLEMSSLRAEDTAVYFCARGPGYNWLDPWGQGTLVTVSS
VL: EIVMTQSPATLSVSPGERVTLSCRASQSISRNLAWYQQKPGQAPRLLIYGASTRATGVPARFSGSGSGTEFTLTISSLQSEDFAVFHCQQYNNRPLTFGGGTEVEIK
notes: as for B7
As for B8, the “U937 Cytotoxicity Human T-cells [M] (EC50)” value in experiment [7] worked out at 3.47e-12 M. Also, in experiment [8], a half-maximal response (EC50) required 711 pM.

B9: H2M2776N (antibody, mouse IgG2, V domains shown)
VH: QVQLVESGGGVVQPGRSLRLSCAASGFTFRSFGMHWVRQAPGRGLEWVAMIYFDGKNKYYADSVRGRFTISRDNSKNTLYLEMSSLRAEDTAVYFCARGPGYNWLDPWGQGTLVTVSS
VL: EIVMTQSPATLSVSPGERVILSCRASQSISRNLAWYQQKPGQAPRLLIYGATTRATGVPARFSGSGSGTEFTLTISSLQSEDFAVFYCQQYNNRPLTFGGGTEVEIK
notes: as for B7
For B9, the “U937 Cytotoxicity Human T-cells [M] (EC50)” value in experiment [7] worked out at 4.06e-12 M. Besides, a half-maximal response in experiment [8] (EC50) required 491 pM.
